# Values of other authors as cited in patent US20250304973.
# pKd: −log10 of the molar value.
# Target: alpha-thrombin (native) (Homo sapiens) (UniProt P00734+P00734)
# Settings: CITED; linker not given
substance,measurement,value
HD1-22 bivalent (HD1 linked to HD22),pKd,9.19
